# Biological target: HLA-A*02:06
# Assay: IEDB peptide-MHC binding, purified MHC/competitive/radioactivity; ≥ and ≤ were set here for values at or beyond the usual limits of such assays
# Conditions: source organism: Vaccinia virus WR
row,Sequence,IC50
1,ITRLEVIGL,0.776 µM
2,IVAAVIIMA,3.57 µM
3,IVCSKTVKNV,2.76 µM
4,KLVETGFVI,0.2 µM
5,MAAAKTPVIV,3.63 µM
6,NIYRLFTRCA,0.023 µM
7,NTFVNFNSV,0.00035 µM
8,TISWMMKLGI,2.78 µM

# Biological target: HLA-A*02:02
# Assay: IEDB peptide-MHC binding, cellular MHC/competitive/fluorescence; ≥ and ≤ were set here for values at or beyond the usual limits of such assays
# Conditions: source organism: Influenza A virus
row,Sequence,IC50
1,CVNGSCFTV,12.4 µM
2,NVMGMIGI,5.92 µM

# Same assay, conditions: source organism: Mammarenavirus lassaense
row,Sequence,IC50
1,MSIQLINKAV,11.4 µM

# Same assay, conditions: source organism: SARS-CoV1
row,Sequence,IC50
1,YLVQQESSFV,12.7 µM

# Same assay, conditions: source organism: Vaccinia virus WR
row,Sequence,IC50
1,AVIIMAINV,9.07 µM
2,CTIVDSMII,13.9 µM
3,DINVIGLIVI,7.15 µM
4,DISDVKVLAA,33.8 µM
5,DLTALLSCI,5.2 µM
6,EISSNDNAKI,11.2 µM
7,EVIERINLLV,19.7 µM
8,FTDCRTIDA,10.9 µM
9,GIKGLDERFV,6.19 µM
10,GVPHSVFIA,5.37 µM
11,HINDQKFDDV,5.86 µM
12,HTNHSDISM,8.81 µM
13,ITPTIEDDKI,18.7 µM
14,ITRLEVIGL,5.51 µM
15,IVAAVIIMA,10.4 µM
16,IVCSKTVKNV,10.8 µM
17,KLVETGFVI,13.2 µM
18,MAAAKTPVIV,6.01 µM
19,NIYRLFTRCA,9.89 µM
20,NTFVNFNSV,5.02 µM
21,TISWMMKLGI,7.84 µM

# Biological target: HLA-A*02:01
# Assay: as above
# Conditions: source organism: Influenza A virus
row,Sequence,IC50
1,AAFEDLRLL,15.5 µM
2,NVMGMIGI,14.5 µM
3,RLTILGKDA,10.9 µM
4,RTLFQQMRDVL,13.7 µM
5,SAFDERRNKYL,24.3 µM
6,TTQIIKLLPFA,5.95 µM

# Same assay, conditions: source organism: Mammarenavirus guanaritoense
row,Sequence,IC50
1,FMNDLQVSR,6.25 µM

# Same assay, conditions: source organism: Mammarenavirus lassaense
row,Sequence,IC50
1,MSIQLINKAV,7.21 µM

# Same assay, conditions: source organism: Vaccinia virus WR
row,Sequence,IC50
1,AIRAGYSIV,5.01 µM
2,ALKNSQAELT,51 µM
3,AMHDKKIDIL,8.94 µM
4,CTIVDSMII,5.16 µM
5,DISDVKVLAA,≥ 70 µM
6,DLTALLSCI,13.5 µM
7,DTIAHINTLI,10.3 µM
8,EIDVSEVKTL,≥ 70 µM
9,EILSNTTKTL,10.1 µM
10,EMKYALINLV,7.36 µM
11,GIKNLKSLL,54.5 µM
12,GLCNYGGILI,24.2 µM
13,GVPHSVFIA,5.35 µM
14,HINDQKFDDV,13.2 µM
15,HLRASTTENA,20.1 µM
16,HTNHSDISM,12.1 µM
17,IIAVFDSKLI,5.93 µM
18,ITFLRPVLKA,≥ 70 µM
19,ITPTIEDDKI,18.8 µM
20,KLVETGFVI,14.3 µM
21,KQNKFGDSPL,5.55 µM

row,Sequence,IC50
1,LATLNTLIT,10.6 µM
2,LIKTLSPAHL,11.6 µM
3,LITNTKSDNI,≥ 70 µM
4,LLKETIQKDI,9.03 µM
5,LVDKEDTDIV,≥ 70 µM
6,MAAAKTPVIV,8.47 µM
7,NLYISDYKML,7.88 µM
8,NMKPNFWSRI,23.4 µM
9,NVKSKLLWFL,33.2 µM
10,PASKKESVI,18.8 µM
11,PLSINVSGV,6.54 µM
12,RILSEKRKDT,48.7 µM
13,RLRQDTEDIV,5.95 µM
14,SLKRFTHTT,5.66 µM
15,SVGTGILFM,5.15 µM
16,SVQLSNNKYV,55 µM
17,TLLNETAKVI,16.9 µM
18,TLNEYKQLYT,11.5 µM
19,VADLSARNKL,23 µM
20,WLTPFEKEFT,15.7 µM
21,YIENTNQGNI,34.5 µM

# Biological target: HLA-A*68:02
# Assay: as above
# Conditions: source organism: Hepacivirus hominis
row,Sequence,IC50
1,YVLLLFLLLA,12 µM

# Same assay, conditions: source organism: Influenza A virus
row,Sequence,IC50
1,AAFEDLRLL,18.1 µM
2,RLTILGKDA,≥ 70 µM
3,RTLFQQMRDVL,≥ 70 µM
4,SAFDERRNKYL,14.1 µM
5,TTQIIKLLPFA,8.22 µM

# Same assay, conditions: source organism: Mammarenavirus guanaritoense
row,Sequence,IC50
1,FMNDLQVSR,26.3 µM

# Same assay, conditions: source organism: Vaccinia virus WR
row,Sequence,IC50
1,AIRAGYSIV,15.4 µM
2,ALKNSQAELT,47.4 µM
3,AMHDKKIDIL,≥ 70 µM
4,DTIAHINTLI,≥ 70 µM
5,EIDVSEVKTL,8.12 µM
6,EILSNTTKTL,15.1 µM
7,EMKYALINLV,≥ 70 µM
8,GIKNLKSLL,≥ 70 µM
9,GLCNYGGILI,35.2 µM
10,HLRASTTENA,36.3 µM
11,IIAVFDSKLI,54.7 µM
12,ITFLRPVLKA,21.4 µM
13,KQNKFGDSPL,31.6 µM
14,LATLNTLIT,13.9 µM
15,LIKTLSPAHL,33.3 µM
16,LITNTKSDNI,20.7 µM
17,LLKETIQKDI,13.2 µM

row,Sequence,IC50
1,LVDKEDTDIV,56.8 µM
2,NLYISDYKML,30.9 µM
3,NMKPNFWSRI,13.1 µM
4,NVKSKLLWFL,7.3 µM
5,PASKKESVI,≥ 70 µM
6,PLSINVSGV,22.5 µM
7,RILSEKRKDT,10 µM
8,RLRQDTEDIV,35.5 µM
9,SLKRFTHTT,42 µM
10,SVGTGILFM,57.4 µM
11,SVQLSNNKYV,11.3 µM
12,TLLNETAKVI,6.34 µM
13,TLNEYKQLYT,≥ 70 µM
14,VADLSARNKL,7.04 µM
15,WLTPFEKEFT,≥ 70 µM
16,YIENTNQGNI,42 µM
17,YLSKEDRII,≥ 70 µM

# Biological target: HLA-A*02:06
# Assay: as above
# Conditions: source organism: Hepacivirus hominis
row,Sequence,IC50
1,YVLLLFLLLA,5.9 µM

# Same assay, conditions: source organism: Influenza A virus
row,Sequence,IC50
1,AAFEDLRLL,6.19 µM
2,RLTILGKDA,≥ 70 µM
3,RTLFQQMRDVL,≥ 70 µM
4,SAFDERRNKYL,≥ 70 µM
5,TTQIIKLLPFA,11.6 µM

# Same assay, conditions: source organism: Mammarenavirus guanaritoense
row,Sequence,IC50
1,FMNDLQVSR,33.6 µM

# Same assay, conditions: source organism: Vaccinia virus WR
row,Sequence,IC50
1,AIRAGYSIV,8.06 µM
2,ALKNSQAELT,27.2 µM
3,AMHDKKIDIL,≥ 70 µM
4,DTIAHINTLI,62.7 µM
5,EIDVSEVKTL,56.1 µM
6,EILSNTTKTL,≥ 70 µM
7,EMKYALINLV,9.84 µM
8,GIKNLKSLL,61.7 µM
9,GLCNYGGILI,5.03 µM
10,HLRASTTENA,≥ 70 µM
11,IIAVFDSKLI,8.51 µM
12,ITFLRPVLKA,18 µM
13,KQNKFGDSPL,5.08 µM
14,LATLNTLIT,14.2 µM
15,LIKTLSPAHL,10.2 µM
16,LITNTKSDNI,18.8 µM
17,LLKETIQKDI,23.4 µM

row,Sequence,IC50
1,LVDKEDTDIV,27.2 µM
2,NLYISDYKML,35.9 µM
3,NMKPNFWSRI,13.9 µM
4,NVKSKLLWFL,31.1 µM
5,PASKKESVI,10.3 µM
6,PLSINVSGV,17.9 µM
7,RILSEKRKDT,6.87 µM
8,RLRQDTEDIV,7.49 µM
9,SLKRFTHTT,59.7 µM
10,SVGTGILFM,20.7 µM
11,SVQLSNNKYV,8.83 µM
12,TLLNETAKVI,8.54 µM
13,TLNEYKQLYT,≥ 70 µM
14,VADLSARNKL,35.9 µM
15,WLTPFEKEFT,30.8 µM
16,YIENTNQGNI,6.2 µM
17,YLSKEDRII,10.5 µM
